{"source": "patent US20230296605A1", "binders": {"B1": {"name": "anti-PRRSV antibody 477 (antibody, V domains shown)", "VH": "QVHVKQSGAELAKPGASVKMSCKASGYTFTNYWMHWVKQRPGQGLEWIGYINPSTGYTEYNQKFKDKATLTADKSSSTASMQLSSLTSEDSAVYYCGRSTAYGKYGEAWFAYWGQGTLVTVSA", "VL": "DIVMTQSPASLAVSLGQRATISCRTSESVDSFGNSFMHWYQQKPGQPPKLLIYLASNLESGVPARFSGSGSRTDFTLTIDPVEADDAATYYCQQNNEDPYTFGGGTKLEIKR"}}, "key": {"[1]": {"molecular_target": "PRRSV viral lysate (Porcine Reproductive and Respiratory Syndrome Virus)", "assay": "ELISA Test 2, coated lysate, antibody 1:4000; PBS control 0.118/0.121"}, "[2]": {"molecular_target": "lysate of porcine pseudorabies virus", "assay": "ELISA Test 1, coated lysate, antibody 1:4000, Group 2; PBS control 0.054/0.052"}, "[3]": {"molecular_target": "lysate of porcine pseudorabies virus", "assay": "ELISA Test 1, coated lysate, antibody 1:4000, Group 1; PBS control 0.080/0.089"}, "[4]": {"molecular_target": "PRRSV viral lysate (Porcine Reproductive and Respiratory Syndrome Virus)", "assay": "ELISA, coated lysate, 1 ug antibody"}, "[5]": {"molecular_target": "lysate of porcine coronavirus", "assay": "ELISA Test 2, coated lysate, antibody 1:4000; PBS control 0.140/0.145"}, "[6]": {"molecular_target": "PRRSV viral lysate (Porcine Reproductive and Respiratory Syndrome Virus)", "assay": "ELISA Test 1, coated lysate, antibody 1:4000, Group 1; PBS control 0.073/0.072"}, "[7]": {"molecular_target": "lysate of porcine circovirus type 2", "assay": "ELISA Test 2, coated lysate, antibody 1:4000; PBS control 0.162/0.153"}, "[8]": {"molecular_target": "PRRSV viral lysate (Porcine Reproductive and Respiratory Syndrome Virus)", "assay": "[…], antibody immobilized; […]"}, "[9]": {"molecular_target": "PRRSV viral lysate (Porcine Reproductive and Respiratory Syndrome Virus)", "assay": "ELISA Test 1, coated lysate, antibody 1:4000, Group 2; PBS control 0.058/0.060"}}}
{"binder": "B1", "values": [{"measurement": "OD450", "setting": "[1]", "result": 0.66, "unit": "OD450"}, {"measurement": "OD450", "setting": "[2]", "result": 0.08, "unit": "OD450"}, {"measurement": "OD450", "setting": "[3]", "result": 0.095, "unit": "OD450"}, {"measurement": "lowest concentration of PRRSV recognized", "setting": "[4]", "result": "< 0.78", "unit": "ng"}, {"measurement": "OD450", "setting": "[5]", "result": 0.375, "unit": "OD450"}, {"measurement": "OD450", "setting": "[6]", "result": 0.151, "unit": "OD450"}, {"measurement": "OD450", "setting": "[7]", "result": 0.303, "unit": "OD450"}, {"measurement": "electric signal, fold over the negative control", "setting": "[8]", "result": 3, "unit": "times"}, {"measurement": "OD450", "setting": "[9]", "result": 0.129, "unit": "OD450"}]}
